Measured values: article PMC7495468

Target: HKU1-A HE ectodomain (human coronavirus HKU1 haemagglutinin-esterase, type A) (human coronavirus HKU1 (type A))
Test: […] (4 mg/ml; SEC buffer 10 mM Tris-HCl pH 8, 50 mM NaCl), […]

Question: Which stoichiometry N does the source give for “HKU1-A HE ectodomain (human coronavirus HKU1 haemagglutinin-esterase, type A) (domain or fragment)” here?
Answer: The stoichiometry N was 2.
